Among the data in patent publication US20260234254A1 (APTEVO RESEARCH AND DEVELOPMENT, published 2026) are Kd, koff and kon values, retold here.

This experiment concerns the target T1, recombinant monomeric CD123 ectodomain (ECD) with an affinity tag on the C-terminus (UniProt P26951 19-305).
T1 construct: extracellular domain; also called CD123 ECD; extracellular domain of CD123
T1 sequence (looked up): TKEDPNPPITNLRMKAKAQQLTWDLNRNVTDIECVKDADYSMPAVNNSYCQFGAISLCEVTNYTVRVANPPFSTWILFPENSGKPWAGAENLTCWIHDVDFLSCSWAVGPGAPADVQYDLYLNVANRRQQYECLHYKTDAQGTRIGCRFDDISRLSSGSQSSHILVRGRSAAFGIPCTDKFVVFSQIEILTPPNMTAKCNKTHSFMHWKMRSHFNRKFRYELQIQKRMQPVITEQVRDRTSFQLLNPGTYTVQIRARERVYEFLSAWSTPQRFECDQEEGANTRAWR
Briefly: SPR (Biacore T200), bispecific captured by anti-human Fc F(ab')2, CD123 ECD 3-48 nM as analyte, 25 °C, 1:1 model. A general note: In SPR one partner is held on a chip, and binding of the other changes the refractive index at the surface.

Protocol: SPR binding studies of bispecific molecules to recombinant monomeric CD123 ectodomain (ECD) were conducted at 25° C. in HBS-EP+ buffer. […] The bispecific molecules at 200 nM in HBS-EP+ buffer were captured by the immobilized anti-Fc F(ab′)2 fragment at a flow rate of 30 μL/min for 120 sec to reach a stable 2000 RU response. […] Optimal regeneration was achieved by one injection of 10 mM glycine (pH 1.7) at a flow rate of 30 μL/min for 15 sec followed by one injection of 50 mM NaOH at 30 μL/min for 15 sec. A two minute stabilization with HBS-EP+ buffer was completed before the subsequent run.
Sensorgrams obtained from kinetic SPR measurements were analyzed by the double subtraction method. The signal from the reference flow cell was subtracted from the analyte binding response obtained from flow cells with immobilized or captured ligands. Buffer reference responses were then averaged from multiple injections. […] All sensorgrams were fitted using a simple one-to-one binding model.

B1: OMT1 VHVL x TSC456 scFv-Fc-scFv TRI129 (bispecific antibody)
chain: EVQLLESGGGLVQPGGSLRLSCAASGFTFSSYGMSWVRQAPGKGLEGVSAISGSGGSTYYADSVKGRFTISRDNSKNTLYLQMNSLRAEDTAVYYCAKEKLRYFDWLSDAFDIWGQGTMVTVSSGGGGSGGGGSGGGGSGGGGSDIVMTQSPDSLAVSLGERATINCKSSHSVLYSSNNKNYLAWYQQKPGQPPKLLIYWASTRESGVPDRFSGSGSGTDFTLTISSLQAEDVAVYYCQQYYSTPPTTFGGGTKVEIKSSSEPKSSDKTHTCPPCPAPEAAGAPSVFLFPPKPKDTLMISRTPEVTCVVVDVSHEDPEVKFNWYVDGVEVHNAKTKPREEQYNSTYRVVSVLTVLHQDWLNGKEYKCAVSNKALPAPIEKTISKAKGQPREPQVYTLPPSRDELTKNQVSLTCLVKGFYPSDIAVEWESNGQPENNYKTTPPVLDSDGSFFLYSKLTVDKSRWQQGNVFSCSVMHEALHNHYTQKSLSLSPGSGGGGSGGGGSGGGGSPSQVQLVQSGPEVKKPGSSVKVSCKASGYTFSRSTMHWVRQAPGQGLEWIGYINPSSAYTNYNQKFKDRVTITADKSTSTAYMELSSLRSEDTAVYYCARPQVHYDYNGFPYWGQGTLVTVSSGGGGSGGGGSGGGGSGGGGSDIQMTQSPSTLSASVGDRVTMTCSASSSVSYMNWYQQKPGKAPKRWIYDSSKLASGVPSRFSGSGSGTDYTLTISSLQPDDFATYYCQQWSRNPPTFGGGTKVEIKRS
notes: Single-chain scFv-Fc-scFv, anti-CD123 (OMT1, VH-VL) x anti-CD3ε (TSC456)
As a reminder, the Kd is the equilibrium constant for the complex coming apart. For orientation: koff means the first-order rate constant of dissociation. By kon is commonly meant the rate constant with which the complex forms. For B1, the dissociation constant (Kd) is 11.4 nM, the dissociation rate constant (koff) worked out at 0.00205 s⁻¹ and the kon was determined as 179000 M⁻¹ s⁻¹.
